The target of data set [1] is T1, integrin alphaIIb beta3 (UniProt P08514;P08514;P05106 P08514:32-887,P08514:891-1039,P05106:27-788). The data set can be described thus: inhibition; inhibition of biotinylated fibrinogen binding (6 nM), room temperature. The note with it: tags: Enzyme Research Laboratories. How it is done: (§1) An estimate of the maximum absorbance value was determined for each ligand/integrin pair in the absence of competitor. The baseline absorbance value was determined by adding 5 mM EDTA to the incubation buffer.
(§2) While the SELEX process identifies RNA sequences with high affinity for a particular target, the procedure used in this example was designed to bias for the recovery of ligand binding site inhibitors by the inclusion of a cRGD peptide competitor in the elution buffer. To test whether aptamer 17.16 could block the ligand binding site of αᵥβ₃ or αIIbβ₃, purified vitronectin and fibrinogen were biotinylated and incubated with one or both of the immobilized integrins in the presence or absence of varying concentrations of the aptamer or a non-binding control RNA. This was done as follows: purified integrin ligands, vitronectin and fibrinogen, were biotinylated according to (Smith et al. (1990) J. Biol. Chem. 265:12267-71). Briefly, proteins were dialyzed into 0.1 M NaHCO₃, 0.1 M NaCl. N-hydroxysuccinimido-LC-biotin (Pierce) was dissolved at 1 mg/mL in DMSO and added to the protein at a ratio of 0.1 mg biotin per 1 mg protein. The reaction was allowed to rotate at room temperature for 2 hours. Biotinylated proteins were dialyzed into phosphate-buffered saline and their concentrations determined by absorbance at 280 nm. […] Absorbance was read at 405 nm.

Data set [2] concerns the target T2, integrin alphaV beta3 (Homo sapiens, UniProt P06756;P06756;P05106 P06756:31-889,P06756:891-1048,P05106:27-788). Described as above. How it is done:
as §1, §2

A further data set addresses integrin alphaV beta5 (Homo sapiens, UniProt P06756;P06756;P18084 P06756:31-889,P06756:891-1048,P18084:24-799). Nature of the data set: no binding observed to immobilized alphaV beta5. The note with it: tags: Chemicon International. How it is done:
(§3) The affinity of individual RNAs and RNA pools for αᵥβ₃ was determined by titration of biotinylated RNA with a small quantity of immobilized integrin. Bound RNA was detected through the biotin moiety. Biotinylated RNA was prepared according to standard transcription protocols, but including a 5-fold molar excess of a 5′-biotin-modified GMP over GTP in the reaction mixture. Methods for synthesizing 5′-biotin-modified guanosine nucleotides are described in WO 98/30720 entitled “Bioconjugation of Oligonucleotides,” specifically incorporated herein by reference in its entirety. The modified nucleotide is incorporated at the 5′ end of the transcript in proportion to its representation in the guanosine pool. 96-well microtiter plates (Immulon 2, Dynatech Laboratories, Inc., Chantilly, Va.) were coated overnight at 4° C. with 100 μL purified αᵥβ₃ at a concentration of 0.25 μg/mL in 20 mM TrisHCl, pH 7.5, 150 mM NaCl, 1 mM MgCl₂, 2 mM CaCl₂, 0.1 mM MnCl₂. Coating concentrations were 0.8 μg/mL for αIIbβ₃ and 0.3 μg/mL for αᵥβ₅. Wells were blocked with 200 μL of a solution of 3% BSA in the same buffer (1 hour at room temperature) then rinsed 3 times with 200 μL binding buffer (50 mM TrisHCl, pH 7.5, 137 mM NaCl, 2.7 mM KCl, 1 mM MgCl₂, 2 mM CaCl₂, 0.1 mM MnCl₂, 0.1% BSA). […] Color development was monitored by absorbance at 405 nm.

For data set [3], the target named is T2, integrin alphaV beta3. The data set can be described thus: microtiter plate, streptavidin-AP; Mg2+, Ca2+, Mn2+, pH 7.5, 37 C. How it is done: The affinity of individual RNAs and RNA pools for αᵥβ₃ was determined by titration of biotinylated RNA with a small quantity of immobilized integrin. Bound RNA was detected through the biotin moiety. Biotinylated RNA was prepared according to standard transcription protocols, but including a 5-fold molar excess of a 5′-biotin-modified GMP over GTP in the reaction mixture. Methods for synthesizing 5′-biotin-modified guanosine nucleotides are described in WO 98/30720 entitled “Bioconjugation of Oligonucleotides,” specifically incorporated herein by reference in its entirety. The modified nucleotide is incorporated at the 5′ end of the transcript in proportion to its representation in the guanosine pool. 96-well microtiter plates (Immulon 2, Dynatech Laboratories, Inc., Chantilly, Va.) were coated overnight at 4° C. with 100 μL purified αᵥβ₃ at a concentration of 0.25 μg/mL in 20 mM TrisHCl, pH 7.5, 150 mM NaCl, 1 mM MgCl₂, 2 mM CaCl₂, 0.1 mM MnCl₂. Coating concentrations were 0.8 μg/mL for αIIbβ₃ and 0.3 μg/mL for αᵥβ₅. Wells were blocked with 200 μL of a solution of 3% BSA in the same buffer (1 hour at room temperature) then rinsed 3 times with 200 μL binding buffer (50 mM TrisHCl, pH 7.5, 137 mM NaCl, 2.7 mM KCl, 1 mM MgCl₂, 2 mM CaCl₂, 0.1 mM MnCl₂, 0.1% BSA). Individual RNAs or RNA pools were denatured briefly at 93° C. in binding buffer without divalent cations or BSA, then serially diluted in the same buffer. 50 μL binding buffer containing 2×-concentrations of divalent cations and BSA were added to each well, followed by 50 μL RNA dilution. RNAs were allowed to incubate in the integrin-coated wells at 37° C. for 30-60 minutes. Unbound RNAs were removed by 3 rapid washes in binding buffer. To detect bound RNA, 100 μL of a 1:2500 dilution in binding buffer of streptavidin-alkaline phosphatase conjugate (Calbiochem) were incubated in each well for 30 minutes at room temperature, followed by three rapid washes, as above. 100 μL/well p-nitrophenyl phosphate (Sigma Chemical Co., St. Louis, Mo.) was added and incubated at room temperature for 30 minutes. Color development was monitored by absorbance at 405 nm.

Data set [4] addresses T1, integrin alphaIIb beta3. The data set can be described thus: affinity identical to alphaV beta3; platelet Kd of ~10 nM stated equivalent to purified alphaIIb beta3. The note with it: tags: Enzyme Research Laboratories. The protocol: as §3
The target of data set [5] is integrin alphaIIb beta3 on human platelets (Homo sapiens, UniProt P08514;P08514;P05106 P08514:32-887,P08514:891-1039,P05106:27-788). Nature of the data set: flow; EDTA-sensitive binding, same for resting and thrombin-activated platelets; Mg2+, Ca2+, room temperature.
Description: Human platelets were chosen for this purpose because of their ease of isolation and their high level of expression of integrin αIIbβ₃. Because αIIbβ₃ undergoes a conformational change upon platelet activation, binding of the aptamer to both resting and thrombin-activated platelets was tested. […] Briefly, RNA was transcribed in the presence of a 5-fold molar excess of the initiator nucleotide guanosine-5′-O-(2-thiodiphosphate) (Calciochem), followed by conjugation of the gel-purified RNA to 5-iodoacetamidofluorescein (Pierce, Rockford, Ill.). Platelet-rich plasma was prepared from freshly-drawn citrated human blood by centrifugation at 1000 rpm for 15 minutes in a table top centrifuge. For activated platelets, cells were incubated for 15 minutes at room temperature at 2×10⁷/mL in calcium- and magnesium-free Dulbecco's PBS with 2.5 U/mL thrombin and 5 mM Gly-Pro-Arg-Pro (GPRP) to inhibit platelet aggregation. […] Resting cells were diluted similarly, without exposure to thrombin or GPRP. The activation state of resting and thrombin-treated cells was monitored by staining with fluorophore-conjugated antibodies to CD61 (β₃ integrin subunit), which binds to all platelets, and to CD62 (P-selectin), a marker of platelet activation. […] The incubation mixtures were applied directly to a Becton Dickinson FACSCalibur flow cytometer to determine the mean fluorescence intensity of the sample. […]
Data set [6] has as its target T2, integrin alphaV beta3. Nature of the data set: inhibition; inhibition of biotinylated vitronectin binding (10 nM), room temperature. The protocol:
as §2

Like-named read-outs stand apart in the source and are kept apart here.

From patent publication US20020150536, “Nucleic acid ligands to integrins” (GILEAD SCIENCES, INC., published 2002) come the findings set out here.

T2 sequence (P06756 31-889, chain 1 of 3): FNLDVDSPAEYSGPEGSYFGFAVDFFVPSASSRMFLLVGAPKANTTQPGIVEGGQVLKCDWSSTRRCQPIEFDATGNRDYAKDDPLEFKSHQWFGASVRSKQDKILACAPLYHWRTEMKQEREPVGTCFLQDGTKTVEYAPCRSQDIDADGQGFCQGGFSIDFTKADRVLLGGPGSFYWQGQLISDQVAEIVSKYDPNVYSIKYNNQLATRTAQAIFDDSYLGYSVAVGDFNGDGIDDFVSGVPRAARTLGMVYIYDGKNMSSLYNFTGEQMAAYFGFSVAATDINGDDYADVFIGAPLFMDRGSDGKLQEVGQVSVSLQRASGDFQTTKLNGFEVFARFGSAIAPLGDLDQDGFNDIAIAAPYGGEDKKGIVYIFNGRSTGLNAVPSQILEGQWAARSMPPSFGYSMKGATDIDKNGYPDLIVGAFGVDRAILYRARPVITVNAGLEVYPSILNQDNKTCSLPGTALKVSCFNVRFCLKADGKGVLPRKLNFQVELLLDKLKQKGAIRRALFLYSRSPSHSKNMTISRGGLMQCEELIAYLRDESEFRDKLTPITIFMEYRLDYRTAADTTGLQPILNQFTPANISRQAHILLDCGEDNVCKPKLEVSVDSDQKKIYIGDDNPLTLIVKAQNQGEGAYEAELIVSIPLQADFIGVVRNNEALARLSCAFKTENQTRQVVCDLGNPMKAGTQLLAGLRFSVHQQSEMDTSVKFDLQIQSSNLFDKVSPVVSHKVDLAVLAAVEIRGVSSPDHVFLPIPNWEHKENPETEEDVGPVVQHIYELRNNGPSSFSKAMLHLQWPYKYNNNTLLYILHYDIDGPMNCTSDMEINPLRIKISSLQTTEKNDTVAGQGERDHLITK
T2 sequence (P06756 891-1048, chain 2 of 3): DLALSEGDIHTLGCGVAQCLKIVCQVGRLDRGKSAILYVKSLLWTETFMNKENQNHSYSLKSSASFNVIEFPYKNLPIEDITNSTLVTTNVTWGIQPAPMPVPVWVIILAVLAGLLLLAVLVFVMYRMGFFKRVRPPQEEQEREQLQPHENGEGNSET
T2 sequence (P05106 27-788, chain 3 of 3): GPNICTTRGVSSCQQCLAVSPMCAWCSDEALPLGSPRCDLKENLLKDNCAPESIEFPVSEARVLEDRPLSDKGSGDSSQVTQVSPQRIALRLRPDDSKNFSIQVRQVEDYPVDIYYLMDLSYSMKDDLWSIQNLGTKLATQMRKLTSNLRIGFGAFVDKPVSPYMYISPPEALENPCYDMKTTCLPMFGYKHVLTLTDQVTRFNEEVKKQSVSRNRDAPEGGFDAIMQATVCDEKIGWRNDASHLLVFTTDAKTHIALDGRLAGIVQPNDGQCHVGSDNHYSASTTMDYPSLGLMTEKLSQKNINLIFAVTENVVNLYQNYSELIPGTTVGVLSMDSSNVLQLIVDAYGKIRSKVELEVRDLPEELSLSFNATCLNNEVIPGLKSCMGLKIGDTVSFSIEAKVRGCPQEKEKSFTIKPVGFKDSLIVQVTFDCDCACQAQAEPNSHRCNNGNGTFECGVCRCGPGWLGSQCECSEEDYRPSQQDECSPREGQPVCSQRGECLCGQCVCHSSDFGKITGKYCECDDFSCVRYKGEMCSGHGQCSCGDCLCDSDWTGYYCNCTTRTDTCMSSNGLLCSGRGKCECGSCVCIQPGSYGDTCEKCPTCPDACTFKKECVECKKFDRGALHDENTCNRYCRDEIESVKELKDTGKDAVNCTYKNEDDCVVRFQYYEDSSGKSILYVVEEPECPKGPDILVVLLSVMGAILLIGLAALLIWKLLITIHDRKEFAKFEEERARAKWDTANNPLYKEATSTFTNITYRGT
Sequence of integrin alphaV beta5 (P06756 31-889, chain 1 of 3): as the sequence (P06756 31-889, chain 1 of 3) above
Sequence of integrin alphaV beta5 (P06756 891-1048, chain 2 of 3): as the sequence (P06756 891-1048, chain 2 of 3) above
Sequence of integrin alphaV beta5 (P18084 24-799, chain 3 of 3): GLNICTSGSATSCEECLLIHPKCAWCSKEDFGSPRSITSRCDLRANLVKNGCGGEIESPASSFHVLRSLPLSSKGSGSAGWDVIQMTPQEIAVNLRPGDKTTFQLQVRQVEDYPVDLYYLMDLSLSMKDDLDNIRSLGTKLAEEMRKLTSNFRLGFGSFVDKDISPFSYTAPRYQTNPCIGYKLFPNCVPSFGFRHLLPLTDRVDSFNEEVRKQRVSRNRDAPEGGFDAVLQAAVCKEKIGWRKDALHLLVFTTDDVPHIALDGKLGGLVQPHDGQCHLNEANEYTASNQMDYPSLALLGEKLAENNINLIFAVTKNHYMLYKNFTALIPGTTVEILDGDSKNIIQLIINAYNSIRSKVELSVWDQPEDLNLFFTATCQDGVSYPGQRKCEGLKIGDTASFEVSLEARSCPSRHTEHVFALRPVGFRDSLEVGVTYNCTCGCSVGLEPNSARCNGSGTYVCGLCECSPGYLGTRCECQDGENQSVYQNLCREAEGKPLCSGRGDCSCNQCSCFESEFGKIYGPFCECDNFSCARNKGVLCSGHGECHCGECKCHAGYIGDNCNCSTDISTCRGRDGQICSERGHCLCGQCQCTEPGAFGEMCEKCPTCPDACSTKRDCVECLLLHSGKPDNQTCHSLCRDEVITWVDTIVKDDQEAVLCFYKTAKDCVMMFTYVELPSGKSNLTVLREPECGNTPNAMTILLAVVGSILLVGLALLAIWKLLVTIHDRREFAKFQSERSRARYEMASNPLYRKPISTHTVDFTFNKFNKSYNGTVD

B1: 17.16 (ssRNA)
RNA: GGGAGACAAGAAUAAACGCUCAAUUCAACGCUGUGAAGGGCUUAUACGAGCGGAUUACCCUUCGACAGGAGGCUCACAACAGGC
modifications: 2'-F C and U
Regarding B1, the IC50 came out at 6.5 nM with integrin alphaIIb beta3 [1], 9.5 nM in the data set with integrin alphaV beta3 [2] and 4.7 nM with integrin alphaV beta3 [6]. Also, the binding result with integrin alphaV beta5 was “no binding”. Also, the values for the Kd (with integrin alphaV beta3 [3]; in the data set with integrin alphaIIb beta3 [4]; in data set [5]) were 8 nM, approximately 10 nM and approximately 10 nM, respectively.

B2: 17.7 (ssRNA)
RNA: GGGAGACAAGAAUAAACGCUCAAUUCUACGCUGUGAAGGGCUUAUACGAGCGGAUUACCCUUCGACAGGAGGCUCACAACAGGC
modifications: 2'-F C and U
In the data set with integrin alphaV beta3 [3] (label: 5'-biotin), B2 gave a dissociation constant Kd of 6 nM.
